Results reported in article PMC5906670, “Structural basis of epilepsy-related ligand–receptor complex LGI1–ADAM22” (Nature Communications, 2018).

B1: LGI1 (wild type, pull-down with ADAM22/23 ECD-FLAG) [human] / ADAM23 ECD-FLAG [human] (parent complex)
chain 1: KKPAKPKCPAVCTCTKDNALCENARSIPRTVPPDVISLSFVRSGFTEISEGSFLFTPSLQLLLFTSNSFDVISDDAFIGLPHLEYLFIENNNIKSISRHTFRGLKSLIHLSLANNNLQTLPKDIFKGLDSLTNVDLRGNSFNCDCKLKWLVEWLGHTNATVEDIYCEGPPEYKKRKINSLSSKDFDCIITEFAKSQDLPYQSLSIDTFSYLNDEYVVIAQPFTGKCIFLEWDHVEKTFRNYDNITGTSTVVCKPIVIETQLYVIVAQLFGGSHIYKRDSFANKFIKIQDIEILKIRKPNDIETFKIENNWYFVVADSSKAGFTTIYKWNGNGFYSHQSLHAWYRDTDVEYLEIVRTPQTLRTPHLILSSSSQRPVIYQWNKATQLFTNQTDIPNMEDVYAVKHFSVKGDVYICLTRFIGDSKVMKWGGSSFQDIQRMPSRGSMVFQPLQINNYQYAILGSDYSFTQVYNWDAEKAKFVKFQELNVQAPRSFTHVSINKRNFLFASSFKGNTQIYKHVIVDLSA
chain 2: AVNPSRGIFEEMKYLELMIVNDHKTYKKHRSSHAHTNNFAKSVVNLVDSIYKEQLNTRVVLVAVETWTEKDQIDITTNPVQMLHEFSKYRQRIKQHADAVHLISRVTFHYKRSSLSYFGGVCSRTRGVGVNEYGLPMAVAQVLSQSLAQNLGIQWEPSSRKPKCDCTESWGGCIMEETGVSHSRKFSKCSILEYRDFLQRGGGACLFNRPTKLFEPTECGNGYVEAGEECDCGFHVECYGLCCKKCSLSNGAHCSDGPCCNNTSCLFQPRGYECRDAVNECDITEYCTGDSGQCPPNLHKQDGYACNQNQGRCYNGECKTRDNQCQYIWGTKAAGSDKFCYEKLNTEGTEKGNCGKDGDRWIQCSKHDVFCGFLLCTNLTRAPRIGQLQGEIIPTSFYHQGRVIDCSGAHVVLDDDTDVGYVEDGTPCGPSMMCLDRKCLQIQALNMSSCPLDSKGKVCSGHGVCSNEATCICDFTWAGTDCSIRDPVRNLHPPKDEGPKGPSA

Variants of: B1
Assay: pull-down; anti-FLAG antibody agarose; proteins secreted from HEK293T cells; n = 4 independent experiments; read off a plot

Variant | percent of parent
chain 1 KKPAKPKCPAVCTCTKDNALCENARSIPRTVPPDVISLSFVRSGFTEISEGSFLFTPSLQLLLFTSNSFDVISDDAFIGLPHLEYLFIENNNIKSISRHTFRGLKSLIHLSLANNNLQTLPKDIFKGLDSLTNVDLRGNSFNCDCKLKWLVEWLGHTNATVEDIYCEGPPEYKKRKINSLSSKDFDCIITEFAKSQDLPYQSLSIDTFSYLNDEYVVIAQPFTGKCIFLEWDHVEKTFRNYDNITGTSTVVCKPIVIETQLYVIVAQLFGGSHIYKRDSFANKFIKIQDIEILKIRKPNDIETFKIENNWYFVVADSSKAGFTTIYKWNGNGFYSHQSLHAWYADTDVEYLEIVRTPQTLRTPHLILSSSSQRPVIYQWNKATQLFTNQTDIPNMEDVYAVKHFSVKGDVYICLTRFIGDSKVMKWGGSSFQDIQRMPSRGSMVFQPLQINNYQYAILGSDYSFTQVYNWDAEKAKFVKFQELNVQAPRSFTHVSINKRNFLFASSFKGNTQIYKHVIVDLSA [chain 1 R344A] | ~6 % of WT
chain 1 KKPAKPKCPAVCTCTKDNALCENARSIPRTVPPDVISLSFVRSGFTEISEGSFLFTPSLQLLLFTSNSFDVISDDAFIGLPHLEYLFIENNNIKSISRHTFRGLKSLIHLSLANNNLQTLPKDIFKGLDSLTNVDLRGNSFNCDCKLKWLVEWLGHTNATVEDIYCEGPPEYKKRKINSLSSKDFDCIITEFAKSQDLPYQSLSIDTFSYLNDEYVVIAQPFTGKCIFLEWDHVEKTFRNYDNITGTSTVVCKPIVIETQLYVIVAQLFGGSHIYKRDSFANKFIKIQDIEILKIRKPNDIETFKIENNWYFVVADSSKAGFTTIYKWNGNGFYSHQSLHAWYRDTDVEYLEIVRTPQTLRTPHLILSSSSQRPVIYQWNKATQLFTNQTDIPNMEDVAAVKHFSVKGDVYICLTRFIGDSKVMKWGGSSFQDIQRMPSRGSMVFQPLQINNYQYAILGSDYSFTQVYNWDAEKAKFVKFQELNVQAPRSFTHVSINKRNFLFASSFKGNTQIYKHVIVDLSA [chain 1 Y399A] | ~4 % of WT
chain 1 KKPAKPKCPAVCTCTKDNALCENARSIPRTVPPDVISLSFVRSGFTEISEGSFLFTPSLQLLLFTSNSFDVISDDAFIGLPHLEYLFIENNNIKSISRHTFRGLKSLIHLSLANNNLQTLPKDIFKGLDSLTNVDLRGNSFNCDCKLKWLVEWLGHTNATVEDIYCEGPPEYKKRKINSLSSKDFDCIITEFAKSQDLPYQSLSIDTFSYLNDEYVVIAQPFTGKCIFLEWDHVEKTFRNYDNITGTSTAVCKPIVIETQLYVIVAQLFGGSHIYKRDSFANKFIKIQDIEILKIRKPNDIETFKIENNWYFVVADSSKAGFTTIYKWNGNGFYSHQSLHAWYRDTDVEYLEIVRTPQTLRTPHLILSSSSQRPVIYQWNKATQLFTNQTDIPNMEDVYAVKHFSVKGDVYICLTRFIGDSKVMKWGGSSFQDIQRMPSRGSMVFQPLQINNYQYAILGSDYSFTQVYNWDAEKAKFVKFQELNVQAPRSFTHVSINKRNFLFASSFKGNTQIYKHVIVDLSA [chain 1 V250A] | ~20 % of WT
chain 1 KKPAKPKCPAVCTCTKDNALCENARSIPRTVPPDVISLSFVRSGFTEISEGSFLFTPSLQLLLFTSNSFDVISDDAFIGLPHLEYLFIENNNIKSISRHTFRGLKSLIHLSLANNNLQTLPKDIFKGLDSLTNVDLRGNSFNCDCKLKWLVEWLGHTNATVEDIYCEGPPEYKKRKINSLSSKDFDCIITEFAKSQDLPYQSLSIDTFSYLNDEYVVIAQPFTGKCIFLEWDHVEKTFRNYDNITGTSTVVCKPIVIETQLYVIVAQLFGGSHIYKRDSFANKFIKIQDIEILKIRKPNDIETFKIENNWYFVVADSSAAGFTTIYKWNGNGFYSHQSLHAWYRDTDVEYLEIVRTPQTLRTPHLILSSSSQRPVIYQWNKATQLFTNQTDIPNMEDVYAVKHFSVKGDVYICLTRFIGDSKVMKWGGSSFQDIQRMPSRGSMVFQPLQINNYQYAILGSDYSFTQVYNWDAEKAKFVKFQELNVQAPRSFTHVSINKRNFLFASSFKGNTQIYKHVIVDLSA [chain 1 K319A] | ~7 % of WT
chain 1 KKPAKPKCPAVCTCTKDNALCENARSIPRTVPPDVISLSFVRSGFTEISEGSFLFTPSLQLLLFTSNSFDVISDDAFIGLPHLEYLFIENNNIKSISRHTFRGLKSLIHLSLANNNLQTLPKDIFKGLDSLTNVDLRGNSFNCDCKLKWLVEWLGHTNATVEDIYCEGPPEYKKRKINSLSSKDFDCIITEFAKSQDLPYQSLSIDTFSYLNDEYVVIAQPFTGKCIFLEWDHVEKTFRNYDNITGTSTVVCKPIVIETQLYVIVAQLFGGSHIYKRDSFANKFIKIQDIEILKIRKPNDIETFKIENNWYFVVADSSKAGFTTIYKWNGNGFYSHQSLHAWYRDTDVEYLEIVRTPQTLRTPHLILSSSSQRPVIYQWNKATQLFTNQTDIPNMEDVYAVKHFSVKGDVYICLTRFIGDSKVMKWGGSSFQDIQRMPSRGSAVFQPLQINNYQYAILGSDYSFTQVYNWDAEKAKFVKFQELNVQAPRSFTHVSINKRNFLFASSFKGNTQIYKHVIVDLSA [chain 1 M443A] | ~10 % of WT
chain 1 KKPAKPKCPAVCTCTKDNALCENARSIPRTVPPDVISLSFVRSGFTEISEGSFLFTPSLQLLLFTSNSFDVISDDAFIGLPHLEYLFIENNNIKSISRHTFRGLKSLIHLSLANNNLQTLPKDIFKGLDSLTNVDLRGNSFNCDCKLKWLVEWLGHTNATVEDIYCEGPPEYKKRKINSLSSKDFDCIITEFAKSQDLPYQSLSIDTFSYLNDEYVVIAQPFTGKCIFLEWDHVEKTFRNYDNITGTSTVVCKPIVIETQLYVIVAQLFGGSHIYKRDSFANKFIKIQDIEILKIAAPNDIETFKIENNWYFVVADSSKAGFTTIYKWNGNGFYSHQSLHAWYRDTDVEYLEIVRTPQTLRTPHLILSSSSQRPVIYQWNKATQLFTNQTDIPNMEDVYAVKHFSVKGDVYICLTRFIGDSKVMKWGGSSFQDIQRMPSRGSMVFQPLQINNYQYAILGSDYSFTQVYNWDAEKAKFVKFQELNVQAPRSFTHVSINKRNFLFASSFKGNTQIYKHVIVDLSA [chain 1 R296A, chain 1 K297A] | ~9 % of WT
chain 1 KKPAKPKCPAVCTCTKDNALCENARSIPRTVPPDVISLSFVRSGFTEISEGSFLFTPSLQLLLFTSNSFDVISDDAFIGLPHLEYLFIENNNIKSISRHTFRGLKSLIHLSLANNNLQTLPKDIFKGLDSLTNVDLRGNSFNCDCKLKWLVEWLGHTNATVEDIYCEGPPEYKKRKINSLSSKDFDCIITEFAKSQDLPYQSLSIDTFSYLNDEYVVIAQPATGKCIFLEWDHVEKTFRNYDNITGTSTVVCKPIVIETQLYVIVAQLFGGSHIYKRDSFANKFIKIQDIEILKIRKPNDIETFKIENNWYFVVADSSKAGFTTIYKWNGNGFYSHQSLHAWYRDTDVEYLEIVRTPQTLRTPHLILSSSSQRPVIYQWNKATQLFTNQTDIPNMEDVYAVKHFSVKGDVYICLTRFIGDSKVMKWGGSSFQDIQRMPSRGSMVFQPLQINNYQYAILGSDYSFTQVYNWDAEKAKFVKFQELNVQAPRSFTHVSINKRNFLFASSFKGNTQIYKHVIVDLSA [chain 1 F222A] | ~16 % of WT
